Measured values: the supplement of paper PMC11865577

Tests used:
Experiment in all cases: pull-down binding Z-score (relative to library population); higher = stronger binding
TO-N3 (biotin conjugate) = details: RNA library: Library-2
Method in brief: (§1)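 Biotin-conjugated small molecule (100 pmol) on streptavidin beads was incubated with 1 μg of heat-folded Cy5- or Cy3-end-labelled RNA library in phosphate/NaCl/KCl buffer at 25 °C for 60 min. Following three washes, RNA was eluted with hot SDS and hybridised at 55.5 °C for 20 h to a DNA barcode microarray. The binding value is a Z-score computed from the library mean and standard deviation, after subtraction of beads without compound and averaging of barcoded replicate probes with the highest and lowest excluded.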

[1] = tested on: G-clamp-N3 (biotin conjugate); details: RNA library: Library-1 (pre-miRNA loops + repeats)
Method in brief: as §1

[2] = tested on: TO-N3-2 (biotin conjugate); details: RNA library: Library-2
Method in brief: as §1

[3] = tested on: TO-3-N3 (biotin conjugate); details: RNA library: Library-2
Method in brief: as §1

[4] = tested on: TO-3-N3-2 (biotin conjugate); details: RNA library: Library-2
Method in brief: as §1

Row | Sequence | pull-down binding Z-score (TO-N3 (biotin conjugate)) | pull-down binding Z-score [1] | pull-down binding Z-score [2] | pull-down binding Z-score [3] | pull-down binding Z-score [4]
1 | GGUAGGUUACGUCAUGCUGUUCUACC [hsa-mir-140] | -0.0663 | 0.599 | 0.193 | -0.251 | -0.139
2 | UGAAGGUCACCAUGUUCUCCUUG [hsa-mir-3187] | 0.145 | -0.816 | -0.229 | 0.0716 | -0.354
3 | CUCAACUCUUGGUCCUCUGAG [hsa-mir-3165] | -0.316 | -0.955 | 0.545 | -0.385 | 0.0789
4 | UGUGCCUGCCUUCGAAGUGCACGGCAGG [hsa-mir-4297] | 0.519 | -0.529 | 0.753 | 0.105 | 0.00697
5 | AGUCACUUACACUACAUGUCACU [hsa-mir-892a] | -1.08 | -0.82 | -0.587 | -0.926 | -0.63
6 | CCCACCCUGAGUUUUGGUGGG [hsa-mir-6508] | -0.245 | -0.873 | -1.22 | -0.066 | -0.26
7 | CUGUUCAGGAGGCUCUCAAUGUGUACA [hsa-mir-199a-1] | 0.947 | -0.113 | 0.656 | 0.518 | 0.404
8 | GGUACUUUAUAAUUUCAAAAAGUCCC [hsa-mir-361] | -1.51 | -0.194 | -1.41 | -1.13 | -0.356
9 | UAAUCACAGGCCACAUUUCUGAAUA [hsa-mir-1295b] | -0.716 | -1.08 | -0.437 | -0.745 | -0.391
10 | AAUUUUCUCUUGUCUAAAAGAAAAGAACG [hsa-mir-521-2] | -0.996 | -0.762 | -0.765 | -0.905 | -0.0994
11 | CGGUGGUCCCUCCCG [hsa-mir-3687-1_3687-2] | 0.14 | -0.273 | 0.832 | 0.0703 | -0.108
12 | UCUGGGGAGAGAGUCCUCUUUUCAGC [hsa-mir-8082] | 0.571 | -0.804 | 0.614 | 0.432 | -0.234
13 | CCUGUAUGUCUCCCCGCAGCACCGUCAUCGU [hsa-mir-6774] | 0.785 | -1.39 | 0.832 | 0.498 | 0.182
14 | AAAAUUACUUUUGGUAAAUACAGUUUU [hsa-mir-559] | -0.344 | -0.546 | -1.04 | -0.101 | 0.00825
15 | CUGCAGAGACGAGGCCUGUAG [hsa-mir-5682] | 0.828 | 0.122 | 0.886 | 0.688 | 0.149
16 | GUGAUAGUAAUAAAGUCUCAU [hsa-mir-135a-2] | -0.32 | -0.286 | -0.0282 | -0.314 | -0.218

Row | Sequence | pull-down binding Z-score (TO-N3 (biotin conjugate)) | pull-down binding Z-score [1] | pull-down binding Z-score [2] | pull-down binding Z-score [3] | pull-down binding Z-score [4]
17 | GAGAAACUUGAGGUCUCUGGGAGUUGCUUAAACCAGUUGACCGUAACCUGGCCAGAGAAUUCUGAUAGUGUC [hsa-mir-6740] | 0.571 | 1.09 | 1.32 | -0.13 | -0.00402
18 | CCAUACAAUAUUUGG [hsa-mir-1302-1] | -0.898 | -1.2 | -1.09 | -0.642 | -0.406
19 | CUACUCAAGGCUAG [hsa-mir-4266] | 1.35 | -0.163 | -0.0352 | 1.32 | 0.132
20 | CUUCCCAUUUAAAAGUAAUGGCACA [hsa-mir-603] | 0.861 | -2.03 | 0.104 | 0.893 | 0.425
21 | CGUUCGCUUUAUUUAUGGCGCACA [hsa-mir-323a] | -0.267 | -0.817 | 0.118 | -0.155 | -0.271
22 | AUGUGAUGUGAGCAGAUGGUUCUCACU [hsa-mir-6758] | -0.621 | -0.46 | 0.176 | -0.532 | -0.346
23 | GAUUUCUAUGAGAACAUC [hsa-mir-3675] | -1.02 | -0.499 | -0.95 | -0.704 | -0.57
24 | GCAGCUAGUAAUAUGAGCCCAGUUGC [hsa-mir-153-2] | -0.011 | -0.831 | 0.128 | 0.0352 | -0.0986
25 | CACAGAGUAAGCAUCAAUAGCAUUGGCAAGUUGAACUGAGCUGUC [hsa-mir-6895] | 0.466 | -0.438 | 1.37 | -0.393 | -0.0293
26 | CAAUCAUGUAUAAUUAAAUUUGAUUG [hsa-mir-514a-1] | -0.511 | 0.528 | -1.18 | -0.112 | 0.0139
27 | UCUUUCAUUUUGGAUUUGACU [hsa-mir-766] | -0.0798 | -0.725 | -0.612 | 0.116 | -0.03
28 | GGCUGUGAGCUCUAGCAAUGCCC [hsa-mir-146b] | 0.59 | -0.867 | 1.31 | 0.251 | 0.158
29 | GGUUUCGGGCUGCC [hsa-mir-661] | 0.249 | 0.142 | 0.74 | 0.148 | 0.067
30 | UUUUCAUGACAACCCUAUAUGGGAAAAUGUUGUGAAAA [hsa-mir-3646] | -1.1 | -0.346 | -1.78 | -0.839 | -0.448
31 | AGGUUCUGCUGGCUGAGAACCU [hsa-mir-3667] | -0.17 | 2.19 | 0.149 | -0.215 | -0.106
